From a protein production outcome set (Wang et al. 2014)

Assay: label from the status in PepcDB records
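Also: failed if final PepcDB status was selected cloned or expressed and not failed if soluble or beyond.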

Row | Sequence | protein production
1 | MRYSPRKQCYFALFFFAFVALCVGVIELLHQNQQDLQQERVQVEAKEQLSILRSNLEAVLMADIYKASTLATLITLLPNSEEEELSIAADRILNKSKHITVIGIAENDVISHIFPTQGNERVLGLDYRKVPAQWVQVQKAKDIQEIFIAGPVSLVQGGRGLIVRVPVFRDPPINKEYWGVISAVVDFDGLMRETGVFDFSYHYPLTIRGYDSGGEYGDMFFGDPNQTGKLYAKEHVHFPYGGWSMAAYAGGQLEQQISWFELNIVRIIGYPILIALSIALIVIYRLYIIADDRALHDELTHLPNRRYFMQSYKQQFEIAKRYKKRYSFALINIDLDRFKHINDTFGHDAGDKVLIATAERIKSSLRRSDMVARMGGDEFLVVVHNLGMEEHVQKLLQKLRLALCSTPVIYDEELIYLRVSIGYAIFDPQMTSPEQMMKIADERMYQQKHGGLEHHHHHH | not failed
2 | MTVPLYKQIASLIEDSIVDGTLSIDQRVPSTNELAAFHRINPATARNGLTLLVEAGILYKKRGIGMFVSAQAPALIRERRDAAFAATYVAPLIDESIHLGFTRARIHALLDQVAESRGLYK | failed
3 | NYNIYDHPKAAEDRKNTVLYLMHYHKRITDKQWEDAKKIDLKANLVNRTPEERQNIDTNQDSEYNSYVNFVKSELMNNKAFKDENLGNVLQSG | failed
4 | MNARDNKFNTWNDSRGNYWSDYEGSDENGDGIGDSAYAVNPEAGSMDYMPLMEYLHSSPVLPTARFTSDITEGFAPLSVRFKDFSENATSRLWMFGDGNTSDSPSPLHTFFNEGEYIVSLIVSNENDSDSASVTIRALEHHHHHH | not failed
5 | GKFGFNDAVGHPKTLKGAAYGRFANSFNLANNKISMDPDGNWMNKIYNEAELAEMDGLNYNWLDEAWSGAFTMNHSVNVSGGSEKATYFAGASYYTQGANLGKQDYNRWNFRAGVDIKLTSDLKFSATIAGNQQETTSSFTKGLSNLNGYGGTKPGESGDYLVLAHMPNYLPWEITLDDGNTYYTSPLLNSYSSAGNATSGNKMSTWNYFAMENNDGSYSTNDNFSYDANFSVTYAVPFIKGLSFKGSYALKRSASDSEQAFMPFTLAYLKASDALTPGNRFYSDHPSVSDYQLKEFTGSTRVVYSDQMAKNEQLNFYVNYEGKFGKHSIAAMAAVEKMQAYMHSKRMLFNNPDPDGYLGTSPSAGAMDTGNSITYKYKQGSLSYLGRVSYNYADKYLFQFLFRSDASTKFAPANYWGFFPGVSVGWVASEEEFMKKLLPSWFEYMKVRFSWGRTGKDNIKAWGWKQLYSLDPSRGYGFGSNGGILQTGIKPGATPNPDAHWDNTDKFNLGFDLRFLNNRLSATVDVYYDINSDILNQNIGGIIGTPIFAGGALTEVNFGRIDAFGSEFSLNWRDKIDQVKYNIGVNFGFNGNRVREWPQSAPSYIQENSVREGASTIFPTYGYKVWRGTSSGDGILRNSDDIENYWNYLSANAEAAGTSPEYLGVKDASQLKPGMLAYQDLGGVLNEDGTQSGPDGRIAKTQDYAKLNKSGKTYGFTTKLGAEWKGISFNMMIATSWGGYRQIDVNKITTSSGDMLWTPDSFWEDMFDERNNTTGKYPNLGLDNRISGSVIAPSDFWSISTFRCYIRNLSIGYTLPKAWLSPLKIQSAKLSLTGNNLW | failed
6 | MAQNNENALPDITKSITLEAPIQKVWETVSTSEGIAKWFMPNDFQLKEGQEFHLQSPFGPSPCKVLAVQAPTELSFEWDTEGWVVTFQLEDLGEKTGFTLIHSGWKEPNEVIGKANEKSSVVRGKMDGGWTGIVNERLRKAVEELEHHHHHH | not failed
7 | MQMDSAQNQFNKRARLFEDPELKDAKVIYPSNPESTEPVNKGYGGSTAIQSFFKESKAEETPKVLKKRGRKKKNPNPEEVNSSTPGGDDSENRSKFYESASARKRTVTAEERERAVNAAKTFEPTNPYFRVVLRPSYLYRGCIMYLPSGFAEKYLSGISGFIKLQLGEKQWPVRCLYKAGRAKFSQGWYEFTLENNIGEGDVCVFELLRTRDFVLEVTAFRVNEYV | failed
8 | MAEARRDGRLPLTLVGGFLGAGKSTWLRHQLHAGRFARHHLLVNEAAETPVDNLLLGGAARLTLLAGGCACCEGQAQLRAALRAICETESGPEAGGIEGILLETSGLADPGAIAAMVAADPVLVRRLALAETLVLVDAAHGTAQLAAEPLARAQIEAAGRLVLTKPAAAPDLARLAATLRALAPEAELSAAERGVPVPLPAGAAEPYPLPPLAAAAPIRPHRLRIGAEGGWVALSTWLSALLQARGEDVVRVKGVVRTPAGRLLLQSVRRMVQPPETLPEGADLPGPAPPPRRERSC | failed
9 | MEATAVNPSIVTASRTVQPYRRLSTLSLRFPTYRNKRVSPFTLTITRCSTTKSREAGQDSSISLKRGLVFDLGVSKDSWHSEEIGSPVVKRFLSDNEERWYMWYHGSSKQNPVSDSIGLAVSNNGIHWERGNGKVESSEDVGLVMSCGEDWWGFDTASVRPGEVVIMSSSKVRANSSVYWMYYTGYTKETVEFQSQDFTSVLGNPERFHLCDENAEKSRVYYRSLPGLAISQDGRHWARIEGEHHSGALFDVGSEKDWDFLYIASPHVVFHGDGDLRMYYHSFDEKTGEFCIGMARSRDGIKWLKLGKILGGRKSEKDGLGFFDELGGRYPCVTRNKRDESYVMAYEGVDRTGKTSIGFAVSKDGIKDWKRVQDEEAVIAVGEGGAWDNEGVGCPYLIEMDGDSDHQWRLYYRGVGNGGRTAMRGEQFELEEDRDGPLELLQSLRSKATELLLREEWEESIKVYTEFIDLSRRQVSSTGGSDPDPDSIAKLRKSLCLALCNRAEARARLRDFLEAMRDCDQALEIEKTHFKTLLCKGKVLLGLSKYSLALECFKTALLDPQASDNLETVTVYIEKCKKLEFQAKTGAFDLSDWILSEFRGKCPELAEFIGSIEIKKSELSGRGLFATKNIVAGTLVLVTKAVAIERGILGNGECGEKAQLIMWKNFVEEVTESVRKCGRTRRVVSALSTGQGEDSLEIPEIALFRPDEAFETCGDWKQSLDTEKLLSILDVNSLVEDAVSGKVMGKNKEYYGVGLWTLASFINHSCIPNARRLHVGDYVIVHASRDIKTGEEISFAYFDVLSPLEKRKEMAESWGFCCGCSRCKFESVLYATNQEVREFEMGLERGVDAGNAVYMVEEGMKRWKVKGKDKGLLRASYWGVYDEIYNSERLMKRWGRKIPTMEVVVDSVSDVVGSDERLMKMAVEGMMKKHGGFSNIVEMEKIMKLGKGVYGKVVSKKKAMKTLLGIE | failed
10 | MSLFMSCVGILVLLFIGFLLSENKKAINVRTIVIALITQISFGAFVMYVPLGQGILQMMSDAVNHIINFSNEGLTFVFGDLANYKVGFIFVINVLCVVIFISALISVLYYLKIMQFVINLIGGALSKLFGTSKAESMSATANIFVGPIEAPSMVRPLIKKMTRSELFAVMTGGLASVAGGTMIGYINLGIDPKYILTACFMTAPAGLLFAKLLCPQTEQEKITNEIEIDDETTPKSLLDAITDGSIMGMNQVATVTALLISFVALIALVNSLVGGIGDLISIEGLSLELIIGYILSPLAFLMGVPWSEAVTAASLIGQKIAVNEFVAYINFIEIAETLSPKTQAIVVFSLCGFANIGSLAMVIGGLGAICPNKRHILSEIGPRVLMAAILANLMSGTIAGALLSFS | failed
11 | MNKFLVSLFLPLVAFANSSEAAANANLFGAFTLIPPLVAIALAFITKDVILSLFTGVLSGTFLLSLSANIFKAQHLTFVNYYNTTVESFSKIISYILGSTSDPVNAGIILQILCIGGLVALITKMGGAKAVALKFAKRAKSAVSAQVNTWFLGLLIFFDDYANLLIVGPIMRPLADKFKISREKFAFIIDSTAAPVAGIAVISTWIGLEVSLIKTAYEHIGISNISAFGIFVETIPYRFYNIFMLFFVVMTAIMRREFGSMYKAEVRARTTGQIAPLPKSGTLDTTELEDQFLAPKEGIKIRAFDAIVPIFTLIILAILGFYFNGLSTLEGEELAKASANPLSFETFRAAFGNADSSVVLFQAALFAAIVAIFIGVRRKIFNLKEAVETWIYGWKTMIFTIVLLLFAWSLSSIVKDLGTSLFITSLLADKLPEFILPATIFAFASAISFAIGTSYGTMGILMPLAVPLAHEIAKINGMDANAMHHYMVINISCVLTGAIFGNHCSPISDNVILSSMSAKCDHMEHVRTQIPYALFICGISLIAGYIPVSLGLSVWFVLPLNFILIALLLRLIGKKVP | failed
12 | MVKLELLKQSDASALLKFELNNKEWFESFIEARDDDFFDDNGIKEHVNFCLAEYKKGLLYPTLIKDEDGQILGRANLYNIDRVKNSGSIGYRIGEEFTSQGLATLATKELLEIGKNRYELSSINAVASTDNAASQKVLIKNGFKEVGFKPEFAFVDGEIIDCYEYRCLIQQLTPVM | failed
13 | MILTPLALTPDHDIPGPVLTELTALYASHRAFHALSGDFPDPEDIRPEQVATALADELARPGAEVLLARDAGRLVGVAVTLARHPDPSDPDPWIGLLMVDAGLTRQGHGSRLVSLVEDRFRAAGRTAVRLAVLDGNTDALSFWTALGYRVLDHRRDLGAERPCTVLRRELASDKPRTPRRAARVAVLDPEGAVFLLRYDNVEVGVHWAMPGGGLEADENPREGALREVREETGWTDLEPGPLLCTWEHDFTHLSVGPVRQYEHIYVAQGPRREPTGPHLAAAHAADGILTWRWWSRAELAEAPEPLWPPDLALLLETFGGREG | failed
14 | MGFLNKLLSSEGPRKPKVKFDLQKCKVLLKGGENRIRLQKSKLAVCNLLASPVPALKNLFNKNSVKLQQREVAVLLEGGKDELARIRAEQMVRDELLIESYEIVEVLCETLLTRHNLLALNFHATKENPYPPLPPEIAEAVCSIAFASCRLDASELQTLTEMLASRFGPELIDSACAGQPSQRVWGVNSLVNPRLYSKLLYSVPDGNVVLQKLQDIADMFQLEWKAPAEFEELKDHSVLDSTASTPVFSGNAQRARYLPEASSFSDEKIGDDVFCTNESEQTEEGRDPSDDLSARLEALKRNR | failed
15 | MNLVGIVGTNSERSTNRKLLRFMAEHFAPQAAIEVLEIKDLPAFDEPENKTAPAAVTAFSKKIAAADGVIIATPEYNHTIPAPLGSALEWIAYTSRVLVNKPVMIVGCSLGALGTSRAQAHLRQILDAPELKARVMPGTEFFLGHSEHVLDDDFNLNNPEKVAELEEHFTEFQDFVIVTNQIVKQADTDRKLEHHHHHH | not failed
16 | MARNSDNDMCKEERKRESFFKVLQRVDISSENMRALPYDFVRSFSNNELSRKMKIKARWGSSWEVEICKNPRFYFMEKSGWEKFVSDNALGASEFLTFTHKGNMRFTVNIFMQDGKEMLQPPQSMSFMASSRPPKREQGIPSLATTIAAESNGGGNYKRKLNFEKKKAEESHNSKRTDKVFSVQRESAGASSSSVAEFSMFIKKSYLIYMWFPKSVQSIHMPKQRTIFKIHHPNMKKSWNVVYVVSGTKSSFSAGWKGLAQEYPLAVGDTCKFSFIKQHELILFVSKP | failed
17 | MGDEHSLIPKQIGVVPSAGFLNVEVFERPCPEPNIQPWDIPYVHYPKPKTYSSSNGEIFSVKDRRANVSTIFETLDKVYNLDWLSSASKNECTSAVGLKWMLNQAEILARYKPLINTSLLIPDLKQVQEMTSKALAYFNTTRHIFLYYEDVVKNRTKLDDVQEFLKVPKLDLKSRQVKIHHGPLSQHVQNWEEVQKTLKGTGFENFLLEDYRR | failed
